# According to US20200270588A1, “GLUCOSYL TRANSFERASE POLYPEPTIDES AND METHODS OF USE” (Syngenta Participations AG, priority 2017, published 2020):
# B1: S117G: bx9 SEQ ID NO:1 mutant (protein)
# chain: MASSRTGAGAGGRVVVFPFPFQGHFNPVMRLARALHARGLAITVFHSGALDPADYPADYRFVPVTVEADPKLLASEDIAAIVTTLNASCDAPFRARLSALLAAEGRDSVRCVFTDVGWNAVLTASSDLGVPALGMMTASAASLRDYMAYRTLIDKGYLPVKEERKEDPVPELPPYLVKDLLRVDTSDLEEFAELLARTVTAARRASGLIFNTFPLIETDTLAEIHKALSVPVFAVAPLNKLVPTATASLHGVVQADRGCLQWLDTQQPGSVLYVSFGSMAAMDPHEFVELAWGLADSKRPFVWVVRPNLIRGFESGALPDGVEDEVRGRGIVVAWAPQEEVLAHPAVGGFLTHNGWNSTVEAISEGVPMVCCPRHGDQFGNMRYVCDVWKVGTELVGEQLERGQVKAAIDRLFGTKEGEEIKERMKEFKIAAAKGIGIGVDVDETASPRTDLTDLVDLIKSF
# modifications: Zea mays
# B2: M135V: bx9 SEQ ID NO:1 mutant (protein)
# chain: MASSRTGAGAGGRVVVFPFPFQGHFNPVMRLARALHARGLAITVFHSGALDPADYPADYRFVPVTVEADPKLLASEDIAAIVTTLNASCDAPFRARLSALLAAEGRDSVRCVFTDVSWNAVLTASSDLGVPALGVMTASAASLRDYMAYRTLIDKGYLPVKEERKEDPVPELPPYLVKDLLRVDTSDLEEFAELLARTVTAARRASGLIFNTFPLIETDTLAEIHKALSVPVFAVAPLNKLVPTATASLHGVVQADRGCLQWLDTQQPGSVLYVSFGSMAAMDPHEFVELAWGLADSKRPFVWVVRPNLIRGFESGALPDGVEDEVRGRGIVVAWAPQEEVLAHPAVGGFLTHNGWNSTVEAISEGVPMVCCPRHGDQFGNMRYVCDVWKVGTELVGEQLERGQVKAAIDRLFGTKEGEEIKERMKEFKIAAAKGIGIGVDVDETASPRTDLTDLVDLIKSF
# modifications: Zea mays
# B3: I78Y: bx9 SEQ ID NO:1 mutant (protein)
# chain: MASSRTGAGAGGRVVVFPFPFQGHFNPVMRLARALHARGLAITVFHSGALDPADYPADYRFVPVTVEADPKLLASEDYAAIVTTLNASCDAPFRARLSALLAAEGRDSVRCVFTDVSWNAVLTASSDLGVPALGMMTASAASLRDYMAYRTLIDKGYLPVKEERKEDPVPELPPYLVKDLLRVDTSDLEEFAELLARTVTAARRASGLIFNTFPLIETDTLAEIHKALSVPVFAVAPLNKLVPTATASLHGVVQADRGCLQWLDTQQPGSVLYVSFGSMAAMDPHEFVELAWGLADSKRPFVWVVRPNLIRGFESGALPDGVEDEVRGRGIVVAWAPQEEVLAHPAVGGFLTHNGWNSTVEAISEGVPMVCCPRHGDQFGNMRYVCDVWKVGTELVGEQLERGQVKAAIDRLFGTKEGEEIKERMKEFKIAAAKGIGIGVDVDETASPRTDLTDLVDLIKSF
# modifications: Zea mays
# B4: A334T: bx9 SEQ ID NO:1 mutant (protein)
# chain: MASSRTGAGAGGRVVVFPFPFQGHFNPVMRLARALHARGLAITVFHSGALDPADYPADYRFVPVTVEADPKLLASEDIAAIVTTLNASCDAPFRARLSALLAAEGRDSVRCVFTDVSWNAVLTASSDLGVPALGMMTASAASLRDYMAYRTLIDKGYLPVKEERKEDPVPELPPYLVKDLLRVDTSDLEEFAELLARTVTAARRASGLIFNTFPLIETDTLAEIHKALSVPVFAVAPLNKLVPTATASLHGVVQADRGCLQWLDTQQPGSVLYVSFGSMAAMDPHEFVELAWGLADSKRPFVWVVRPNLIRGFESGALPDGVEDEVRGRGIVVTWAPQEEVLAHPAVGGFLTHNGWNSTVEAISEGVPMVCCPRHGDQFGNMRYVCDVWKVGTELVGEQLERGQVKAAIDRLFGTKEGEEIKERMKEFKIAAAKGIGIGVDVDETASPRTDLTDLVDLIKSF
# modifications: Zea mays
# B5: A334E: bx9 SEQ ID NO:1 mutant (protein)
# chain: MASSRTGAGAGGRVVVFPFPFQGHFNPVMRLARALHARGLAITVFHSGALDPADYPADYRFVPVTVEADPKLLASEDIAAIVTTLNASCDAPFRARLSALLAAEGRDSVRCVFTDVSWNAVLTASSDLGVPALGMMTASAASLRDYMAYRTLIDKGYLPVKEERKEDPVPELPPYLVKDLLRVDTSDLEEFAELLARTVTAARRASGLIFNTFPLIETDTLAEIHKALSVPVFAVAPLNKLVPTATASLHGVVQADRGCLQWLDTQQPGSVLYVSFGSMAAMDPHEFVELAWGLADSKRPFVWVVRPNLIRGFESGALPDGVEDEVRGRGIVVEWAPQEEVLAHPAVGGFLTHNGWNSTVEAISEGVPMVCCPRHGDQFGNMRYVCDVWKVGTELVGEQLERGQVKAAIDRLFGTKEGEEIKERMKEFKIAAAKGIGIGVDVDETASPRTDLTDLVDLIKSF
# modifications: Zea mays
# B6: M279W: bx9 SEQ ID NO:1 mutant (protein)
# chain: MASSRTGAGAGGRVVVFPFPFQGHFNPVMRLARALHARGLAITVFHSGALDPADYPADYRFVPVTVEADPKLLASEDIAAIVTTLNASCDAPFRARLSALLAAEGRDSVRCVFTDVSWNAVLTASSDLGVPALGMMTASAASLRDYMAYRTLIDKGYLPVKEERKEDPVPELPPYLVKDLLRVDTSDLEEFAELLARTVTAARRASGLIFNTFPLIETDTLAEIHKALSVPVFAVAPLNKLVPTATASLHGVVQADRGCLQWLDTQQPGSVLYVSFGSWAAMDPHEFVELAWGLADSKRPFVWVVRPNLIRGFESGALPDGVEDEVRGRGIVVAWAPQEEVLAHPAVGGFLTHNGWNSTVEAISEGVPMVCCPRHGDQFGNMRYVCDVWKVGTELVGEQLERGQVKAAIDRLFGTKEGEEIKERMKEFKIAAAKGIGIGVDVDETASPRTDLTDLVDLIKSF
# modifications: Zea mays
# B7: A334C: bx9 SEQ ID NO:1 mutant (protein)
# chain: MASSRTGAGAGGRVVVFPFPFQGHFNPVMRLARALHARGLAITVFHSGALDPADYPADYRFVPVTVEADPKLLASEDIAAIVTTLNASCDAPFRARLSALLAAEGRDSVRCVFTDVSWNAVLTASSDLGVPALGMMTASAASLRDYMAYRTLIDKGYLPVKEERKEDPVPELPPYLVKDLLRVDTSDLEEFAELLARTVTAARRASGLIFNTFPLIETDTLAEIHKALSVPVFAVAPLNKLVPTATASLHGVVQADRGCLQWLDTQQPGSVLYVSFGSMAAMDPHEFVELAWGLADSKRPFVWVVRPNLIRGFESGALPDGVEDEVRGRGIVVCWAPQEEVLAHPAVGGFLTHNGWNSTVEAISEGVPMVCCPRHGDQFGNMRYVCDVWKVGTELVGEQLERGQVKAAIDRLFGTKEGEEIKERMKEFKIAAAKGIGIGVDVDETASPRTDLTDLVDLIKSF
# modifications: Zea mays
# B8: A432P, M279F: double mutant of bx9 SEQ ID NO:1 (protein)
# chain: MASSRTGAGAGGRVVVFPFPFQGHFNPVMRLARALHARGLAITVFHSGALDPADYPADYRFVPVTVEADPKLLASEDIAAIVTTLNASCDAPFRARLSALLAAEGRDSVRCVFTDVSWNAVLTASSDLGVPALGMMTASAASLRDYMAYRTLIDKGYLPVKEERKEDPVPELPPYLVKDLLRVDTSDLEEFAELLARTVTAARRASGLIFNTFPLIETDTLAEIHKALSVPVFAVAPLNKLVPTATASLHGVVQADRGCLQWLDTQQPGSVLYVSFGSFAAMDPHEFVELAWGLADSKRPFVWVVRPNLIRGFESGALPDGVEDEVRGRGIVVAWAPQEEVLAHPAVGGFLTHNGWNSTVEAISEGVPMVCCPRHGDQFGNMRYVCDVWKVGTELVGEQLERGQVKAAIDRLFGTKEGEEIKERMKEFKIAPAKGIGIGVDVDETASPRTDLTDLVDLIKSF
# modifications: Zea mays
# Assay: UDP luminescence plate assay of E. coli extracts, mutants of SEQ ID No: 1, 2 mM metribuzin
# Format: biochemical, Zea mays
# Conditions: for SIGNAL: metribuzin signal of mutant divided by metribuzin signal of w/t bx9 / luminescence signal with metribuzin / SIGNAL: metribuzin signal of mutant divided by the signal of w/t bx9 / luminescence signal observed with 2 mM metribuzin / RATIO: metribuzin signal to DMSO signal: 2 mM metribuzin; for luminescence signal with metribuzin: H24A null background 1.00E+05 not subtracted; for SIGNAL: metribuzin signal of mutant divided by the signal of w/t bx9: relative to bx9 w/t; for luminescence signal in the DMSO control: mutants of SEQ ID No: 1, DMSO in place of metribuzin (background UDP-glucose hydrolysis); for luminescence signal observed with 2 mM metribuzin: mutants of SEQ ID No: 1 in E. coli extracts, UDP luminescence
# Procedure: Optionally plate assays are stopped with brief heating to 95 C before returning to ice and addition of UDP-Glo detection reagent followed by incubation at lab temperature. […] In addition a UDP standard curve is run alongside each set of plate tests.
# Assays were carried out on extracts of E. coli BL21 DE3 expressing the various C-terminally his-tagged library variants of SEQ ID NO:1 at the amino acid positions listed in Table 11 as described in Example 2 except, in this case, with 2 mM metribuzin in place of herbicide V.
# Thus the ratio of the metribuzin to DMSO signal as well as the increase in signal relative to the w/t bx9 is used to help distinguish those mutations most likely to offer the highest activity to metribuzin. A follow up assay monitored by, for example, LC MS is one method to distinguish these cases more quantitatively.
Molecule,SIGNAL: metribuzin signal of mutant divided by metribuzin signal of w/t bx9,luminescence signal with metribuzin,SIGNAL: metribuzin signal of mutant divided by the signal of w/t bx9,luminescence signal in the DMSO control,luminescence signal observed with 2 mM metribuzin,RATIO: metribuzin signal to DMSO signal
B1,1.26,1.56E+05,1.07,2.41E+05,3.00E+05,
B2,1.18,1.46E+05,,,,0.97
B3,,,1.23,3.27E+05,3.44E+05,
B4,1.25,1.54E+05,,,,0.95
B5,1.25,1.54E+05,,,,0.96
B6,1.14,1.41E+05,1.26,2.09E+05,3.51E+05,
B7,1.13,1.39E+05,,,,0.94
B8,1.68,2.08E+05,2.52,2.75E+05,7.06E+05,
